Laboratory results published in patent US20190241662A1 (ADAGENE, published 2019).

T1: human OX40 on HEK293F cells (human, UniProt P43489 29-277)
T1 construct: whole, on cells
T1 sequence (looked up): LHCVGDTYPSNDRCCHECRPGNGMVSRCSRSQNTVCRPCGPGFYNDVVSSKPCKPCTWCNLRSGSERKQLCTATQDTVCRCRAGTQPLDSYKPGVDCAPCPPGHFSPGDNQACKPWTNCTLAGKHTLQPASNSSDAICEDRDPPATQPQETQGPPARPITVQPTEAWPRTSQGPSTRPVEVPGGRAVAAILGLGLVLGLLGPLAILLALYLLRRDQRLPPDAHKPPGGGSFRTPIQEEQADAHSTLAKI

T2: human CD95 on HEK293F cells (human, UniProt P25445 26-335)
T2 construct: whole, on cells
T2 sequence (looked up): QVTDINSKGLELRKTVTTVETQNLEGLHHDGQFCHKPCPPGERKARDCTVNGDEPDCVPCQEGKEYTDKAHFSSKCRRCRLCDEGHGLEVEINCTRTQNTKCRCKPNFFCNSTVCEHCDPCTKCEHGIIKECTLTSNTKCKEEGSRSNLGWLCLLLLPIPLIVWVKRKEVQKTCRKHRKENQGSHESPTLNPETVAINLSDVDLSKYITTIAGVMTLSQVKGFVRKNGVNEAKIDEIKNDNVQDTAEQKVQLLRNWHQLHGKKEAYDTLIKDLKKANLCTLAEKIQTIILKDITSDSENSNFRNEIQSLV

T3: human TNFR1 on HEK293F cells (human, UniProt P19438 30-455)
T3 construct: whole, on cells; also called CD120a
T3 sequence (looked up): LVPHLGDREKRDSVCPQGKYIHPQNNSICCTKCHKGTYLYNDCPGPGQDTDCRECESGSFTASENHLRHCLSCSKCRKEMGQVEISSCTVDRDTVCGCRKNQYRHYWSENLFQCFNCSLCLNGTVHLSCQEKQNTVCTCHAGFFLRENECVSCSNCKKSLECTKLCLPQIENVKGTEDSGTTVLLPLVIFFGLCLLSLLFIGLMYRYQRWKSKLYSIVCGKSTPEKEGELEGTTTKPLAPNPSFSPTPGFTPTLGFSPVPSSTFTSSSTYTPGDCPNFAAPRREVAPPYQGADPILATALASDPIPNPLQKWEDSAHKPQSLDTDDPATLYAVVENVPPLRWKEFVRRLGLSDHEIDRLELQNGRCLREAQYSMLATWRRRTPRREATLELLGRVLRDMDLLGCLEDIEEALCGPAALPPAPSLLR

T4: human Tim3 on HEK293F cells (human, UniProt Q8TDQ0 22-301)
T4 construct: whole, on cells
T4 sequence (looked up): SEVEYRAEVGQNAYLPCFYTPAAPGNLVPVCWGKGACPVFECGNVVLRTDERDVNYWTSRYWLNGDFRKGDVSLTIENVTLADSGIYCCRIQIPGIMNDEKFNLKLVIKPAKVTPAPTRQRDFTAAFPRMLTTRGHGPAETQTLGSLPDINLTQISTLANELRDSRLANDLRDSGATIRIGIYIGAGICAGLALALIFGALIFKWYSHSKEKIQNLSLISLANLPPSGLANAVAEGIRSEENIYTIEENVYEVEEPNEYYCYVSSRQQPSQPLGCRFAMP

T5: human B7H3 on HEK293F cells (human, UniProt Q5ZPR3 29-534)
T5 construct: whole, on cells
T5 sequence (looked up): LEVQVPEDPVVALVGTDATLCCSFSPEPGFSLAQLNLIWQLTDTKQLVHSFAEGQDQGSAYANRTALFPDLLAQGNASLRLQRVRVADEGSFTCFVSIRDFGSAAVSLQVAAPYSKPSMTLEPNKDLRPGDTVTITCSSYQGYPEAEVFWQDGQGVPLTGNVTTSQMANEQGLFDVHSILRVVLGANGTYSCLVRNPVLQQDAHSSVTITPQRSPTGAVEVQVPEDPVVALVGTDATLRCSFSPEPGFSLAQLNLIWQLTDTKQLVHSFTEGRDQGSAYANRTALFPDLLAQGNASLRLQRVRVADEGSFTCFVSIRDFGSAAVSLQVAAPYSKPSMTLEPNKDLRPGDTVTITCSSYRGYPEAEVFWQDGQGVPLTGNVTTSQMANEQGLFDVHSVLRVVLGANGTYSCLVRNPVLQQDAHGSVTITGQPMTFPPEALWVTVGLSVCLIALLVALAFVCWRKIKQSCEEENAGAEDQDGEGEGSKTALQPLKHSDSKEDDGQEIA


Columns and labels:
[1] = target: T1, human OX40 on HEK293F cells; experiment: flow cytometry, transfected HEK293F cells
Description: (§1) Antibody selectivity was next examined. Human CTLA4, PD1, LAG3, Tim3, B7H3, CD95, TNFR1, OX40, CD40, PD-L1, BLTA, VISTA, PDL2, ICOS and B7H4 were transiently overexpressed on the surface of HEK293F cells. Transfected cells were washed in pre-chilled 1×PBSA buffer (1.76 mM KH2PO4, 10.14 mM Na2HPO4.12H2O, 2.68 mM KCl, 136.89 mM NaCl and 1% BSA), then incubated with 100 nM test antibodies for 1 hour on ice. Cells were washed once with staining buffer, and Alexa Fluor® 647 conjugated mouse anti-human FC antibodies were added and incubated for 30 minutes on ice, protected from light. Samples were washed once with staining buffer prior to analysis by flow cytometry.

[2] = target: T2, human CD95 on HEK293F cells; experiment: flow cytometry, transfected HEK293F cells
Description: as §1

[3] = target: T3, human TNFR1 on HEK293F cells; experiment: flow cytometry, transfected HEK293F cells
Description: as §1

[4] = target: T6, full-length mouse CTLA4 expressed on HEK293F cells (mouse, UniProt P09793 36-223); experiment: flow cytometry, transfected HEK293F cells, antibody concentration not given
T6 construct: whole, on cells
Description: The affinities of the antibodies were also assessed against human and mouse CTLA4 transiently expressed on the surface of HEK293F cells (FIG. 2). Briefly, HEK293F cells were transfected with a plasmid expressing full-length human, monkey or mouse CTLA4 from a bicistronic IRES vector also encoding EGFP, and EGFP expression was used to identify the transfected cells. After 48 hours, the mammalian cell suspension (2×10⁵/well) was transferred to an Eppendorf tube, centrifuged, the supernatant was discarded, the cells were resuspended with 1 mL PBSA (to a density is 4×10⁶ cells/mL), and added to a 96 well plate. […] The cells were then washed once prior to analysis by flow cytometry (Beckman® CytoFlex).

[5] = target: T4, human Tim3 on HEK293F cells; experiment: flow cytometry, transfected HEK293F cells
Description: as §1

[6] = target: T5, human B7H3 on HEK293F cells; experiment: flow cytometry, transfected HEK293F cells
Description: as §1

Binder	binding result [1]	binding result [2]	binding result [3]	% of cells in upper right quadrant (Q2) [4] [%]	binding result [5]	binding result [6]
TY21585 (antibody, V domains shown, human IgG1 (hIgG1) from Fab hit B15709) VH: EVQLVESGGGLVQPGGSLRLSCAASGFTFSDYAIHWVRQAPGKGLEWIGIISPSSGSTNYAQKFQGRVTISRDNSKNTLYLQLNSLRAEDTAVYYCARDIHSGSSGYYYGFDVWGQGTLVTVSS VL: DIQLTQSPSSLSASVGDRVTITCRASESVDFFGISFLAWYQQKPGKAPKLLIYDASNRATGIPSRFSGSGSGTDFTLTISSLQPEDFATYYCQHYTSSPPVYTFGQGTKVEIK	no binding (tested: 100 nM)	no binding (tested: 100 nM)	no binding (tested: 100 nM)	30.8	–	–
TY21691 (antibody, V domains shown, human IgG1 (hIgG1) from Fab hit B15736) VH: EVQLVESGGGLVQPGGSLRLSCAASGFTFSDYAIHWVRQAPGKGLEWIGIISPSGGSTKYAQKFQGRVTISRDNSKNTLYLQLNSLRAEDTAVYYCARLGYGYFDVWGQGTLVTVSS VL: DIQLTQSPSSLSASVGDRVTITCRASQSVDFYGISFLHWYQQKPGKAPKLLIYDASSLESGVPSRFSGSGSGTDFTLTISSLQPEDFATYYCVQALQLPLTFGQGTKVEIK	–	–	–	–	no binding (tested: 100 nM)	no binding (tested: 100 nM)
